Experimental data: the supplement of paper PMC12764529
± gives the half width of the 95% confidence interval.

Assays:
[1] = folding stability dG unfold (combined trypsin and chymotrypsin); higher = more stable
In short: (§1)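 Unfolding free energy was derived, per protease or combined, by relating Bayesian-fitted K50 values from sequencing counts to a sequence-predicted unfolded-state K50 and a shared folded-state K50. The underlying digests exposed cysteine-free mini-proteins under 80 residues, in a PA-tagged cDNA display construct, to trypsin and chymotrypsin at 11 threefold-diluted concentrations and to a no-protease condition. A filter kept only designs with AlphaFold2 dimer inter-PAE above 15.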

[2] = folding stability dG unfold from trypsin proteolysis; higher = more stable
In short: as §1

[3] = folding stability dG unfold from chymotrypsin proteolysis; higher = more stable
In short: as §1

Sequence	folding stability dG unfold [1] [kcal/mol]	folding stability dG unfold [2] [kcal/mol]	folding stability dG unfold [3] [kcal/mol]
SAGGSAEVTFTLPDGTPFSGEVTRFPDSIRVTLTVGSTPASFEMDPSTNLITGNIPGRPLTVSLGLSAGGSA [r2_194_JUSTAS]	1.18 ± 0.053	1.17 ± 0.03	1.11 ± 0.1
SAGGSAEVTITVEYDEETGVLKITITVPPGVTVEEIAEALKKLVPDVKVEKNEDGTITVYVKLPEKSAGGSA [r15_1057_TrROS_Hall]	4.07 ± 0.33	2.44 ± 0.16	4.36 ± 0.16
SAGGSAFKIKIPEDLRGAPPGGKIEIEFPNGVRAEIEYKDGEWVIEVKHYGPNGKPVEEHEFRIKVSAGGSA [r15_558_TrROS]	1.28 ± 0.22	1.47 ± 0.046	0.94 ± 0.18
SAGGSAFPIRIKDDNQKKIMIPFDSPEELEDLLKEPGIDKVDPEPNPDGNQPWFTIDLPNGKIELWSAGGSA [r15_632_TrROS]	-0.826 ± 0.38	-1.53 ± 0.5	-1.04 ± 0.66
SAGGSAGEAYSVVKASWNPETGTLNIVVKNPSTGEQKVYNIKPGNPVIDFPEGSVIESIEINPSPYSAGGSA [r15_959_TrMRF]	0.835 ± 0.11	0.237 ± 0.095	1.03 ± 0.2
SAGGSAGGAIGTIDYNGKPLRLSVYLPDNPRVFEYPVDGDPLVFAAELNRETGFDVTDVVVVGGSAGGSAGG [r6_762_TrMRF]	0.132 ± 0.14	0.291 ± 0.098	0.033 ± 0.18
SAGGSAGGAPILPEVKKIGFEKLPNGEYKVTIYVKGGKKLAEITFPPNTTIEQAVEDAIEALKSSAGGSAGG [r6_435_TrMRF]	2.28 ± 0.091	2.3 ± 0.063	2.38 ± 0.048
SAGGSAGGAPLMIMLEAEWKREPDPNGDKRRKVKLRVSIMTPRPDPDGKPNMHMISIPITFKVKSAGGSAGG [r6_224_TrROS]	3.51 ± 0.2	2.87 ± 0.087	4.08 ± 0.07
SAGGSAGGAPPDARVTIEVELKNPDGTPISEEEVIEKLKPLGLEPVEIDVDPETGKVTITVRVLSAGGSAGG [r6_774_JUSTAS]	1.41 ± 0.083	1.69 ± 0.053	1.04 ± 0.092
SAGGSAGGDGPGAPPVPRIRIKVEFEHNGKKVTWEFRSLDDMKEQVKERFKENGLKVKITEIEWSAGGSAGG [r6_869_TrROS]	1.88 ± 0.1	1.67 ± 0.06	2.04 ± 0.041
SAGGSAGGDPRPVRVEVLRLEYDPPSGLLRALVRNPENDLLVFATLRIFPDPAGAELRVESVVFSAGGSAGG [r6_70_TrMRF]	2.49 ± 0.11	1.39 ± 0.071	2.85 ± 0.1
SAGGSAGGDSIEFIIPYDDMPKEEAKRRVRWIANGFAEHNPGKPIEIEIHVIPVPPPPSPEDKNSAGGSAGG [r6_729_TrROS]	-0.163 ± 0.16	-0.0761 ± 0.16	-0.467 ± 0.66
SAGGSAGGDTITIWIPGMPLEELRDLLKAFFPGKDVSVEYDPEHGSFVLTVNGKKITIHIMPPNSAGGSAGG [r6_609_TrROS]	4.45 ± 0.086	3.89 ± 0.1	4.45 ± 0.061
SAGGSAGGDTVVIEVDMSEEEALALARALADAGKTVEIVVRDKDGRTRKITITVPPEELELPEESAGGSAGG [r6_62_TrROS_Hall]	1.95 ± 0.042	1.74 ± 0.019	2.11 ± 0.029
SAGGSAGGDYMMIKITNGSIKLMDGDDGKPIANLPPNQEITIMIPIKPPPPPEERKYDPNGKPKSAGGSAGG [r6_40_TrROS]	0.799 ± 0.32	0.515 ± 0.2	1.24 ± 0.2
SAGGSAGGDYVKIEIWIPPGMPDAEELVDKMSNYGFEIKKIERDPKNNYVRVTIVFQIPPGAIKSAGGSAGG [r6_604_TrROS]	2.26 ± 0.27	1.67 ± 0.084	2.43 ± 0.067
SAGGSAGGEDPNFTPPVKVYYLDLEIEVKPNEIEKLKEEFPDLEAEYEKLGDTYKVKLRIPVPVSAGGSAGG [r6_685_TrMRF]	1.85 ± 0.17	1.51 ± 0.077	2.03 ± 0.12
SAGGSAGGEEEETVTLTLEVEVEAEVKVEKNADGEETEVEVKVKRVRVRLTLTLTKEELEKLLKSAGGSAGG [r6_119_TrROS_Hall]	3.54 ± 0.31	2.59 ± 0.14	4.17 ± 0.15
SAGGSAGGEELLATATPVTVGDEVYYRFTIRNPDGTPIGDRLVPASVLSGYSPDTVITLPPDLLSAGGSAGG [r6_34_JUSTAS]	1.04 ± 0.094	1.29 ± 0.024	0.784 ± 0.16
SAGGSAGGEGWRPLNVWIPFPDPKARLDEIVDMISKLFGWPIKIKITEVIPGDPDMIRVTIYVPSAGGSAGG [r6_211_TrROS]	3.47 ± 0.091	3.41 ± 0.11	3.53 ± 0.056
SAGGSAGGEKEYIIKIKLEMPNGREMKHWFPFKTVEQIKDQLRKLPDPNYKIDDVEIMPADELKSAGGSAGG [r6_297_TrROS]	0.263 ± 0.12	-0.237 ± 0.14	0.594 ± 0.15

Sequence	folding stability dG unfold [1] [kcal/mol]	folding stability dG unfold [2] [kcal/mol]	folding stability dG unfold [3] [kcal/mol]
SAGGSAGGEKKGKPPVKIVIKVRDVDTGETRTITLTIEPDMTVEEIRELLRALLPPGAEVEIVPSAGGSAGG [r6_440_TrROS_Hall]	3.08 ± 0.16	1.6 ± 0.052	3.45 ± 0.15
SAGGSAGGELPPPPLLVVRVTVRRDGKELELELVVPSLEEALEALRALLPEEDLEIRVEVRLLPSAGGSAGG [r6_113_TrROS_Hall]	2.67 ± 0.2	2.12 ± 0.089	2.92 ± 0.16
SAGGSAGGENNIEVYYVEVKVPDPSIPLSVVLEKLPLPPEFLTVTPVEVKPPDGTVLIAIYRDSSAGGSAGG [r6_955_TrMRF]	0.409 ± 0.089	0.516 ± 0.02	-0.0815 ± 0.14
SAGGSAGGEPPPVVITVTVRNPATGETVKATAVLNPDGTLQVTVTRPDGSKQTFTATISAEALKSAGGSAGG [r6_588_TrROS_Hall]	3.63 ± 0.34	2.76 ± 0.33	3.86 ± 0.15
SAGGSAGGEPVKIEWEPIGRDPNGAFKFRLIIRDPDGTVQRTEIWINPNGGMQVETETIPPEDNSAGGSAGG [r6_263_TrROS]	2.13 ± 0.14	1.92 ± 0.065	2.15 ± 0.085
SAGGSAGGEWVIINIMFRFPPGDPNIKIEIKFPGLPKDMKIEYSIFPTDNWYYIMVSIWVPPNASAGGSAGG [r6_482_TrROS]	4.85 ± 0.34	3.66 ± 0.29	5.16 ± 0.15
SAGGSAGGFKIRPIGVDDNYIVFRFRPDDPEALKKLGFKITGVEESGGSVEIIFRMPPEAKDLISAGGSAGG [r6_109_TrROS]	0.584 ± 0.12	0.781 ± 0.12	0.399 ± 0.16
SAGGSAGGGDAESYAKEKGFVEIKVTKLPDGSERVTAKYPDGTTADILYTPGQGTFTLLETKKESAGGSAGG [r6_906_JUSTAS]	0.332 ± 0.078	0.154 ± 0.034	0.407 ± 0.082
SAGGSAGGGGPGAPAVPTVSINIKIEEGEKVTIRNGTNKDEIIKSTKEEAEKKGKKVTVETVEGSAGGSAGG [r6_869_JUSTAS]	0.883 ± 0.28	-0.273 ± 0.28	1.26 ± 0.24
SAGGSAGGGKVLLEIYVPSEVPSVEELVEKLESEGFEVVKVESVPEGDYVRILVEKDVPPESIESAGGSAGG [r6_601_TrMRF]	1.57 ± 0.11	1.28 ± 0.066	1.71 ± 0.15
SAGGSAGGGLDPVPIKRVTVLRNPETDEYVVLIENEDGLPYAFPFDSLEDAERFVRRLVEEGYLSAGGSAGG [r6_65_TrMRF]	4.967 ± 0.047	4.76 ± 0.09	5.01 ± 0.061
SAGGSAGGGLIEIIPNTLKAKIINPKTGKVEEIEFSNIDELIEEIKKKYPNVDFKILPNGIILGSAGGSAGG [r6_286_TrMRF]	3.05 ± 0.19	3.14 ± 0.16	2.82 ± 0.07
SAGGSAGGGMMLTLSSQTTQTSYDPSGLSTTLSLTTNPLGGTTVVTTTTVPGTGEVSVTTTPSSSAGGSAGG [r6_977_JUSTAS]	1.04 ± 0.045	1.32 ± 0.024	0.508 ± 0.065
SAGGSAGGGMPMNIKVEEITSETIPPDVTVSETKVIDPSGKELKYLTVTTVRTDGKTSVLTVEGSAGGSAGG [r6_830_JUSTAS]	-0.0271 ± 0.31	0.201 ± 0.087	-0.58 ± 0.56
SAGGSAGGGMVKREIKVTVTRLPESDVWLVTVTTKIGDKWEIIPVPVAAPADLSAEELAKEVLESAGGSAGG [r6_21_JUSTAS]	0.939 ± 0.11	1.09 ± 0.036	0.751 ± 0.087
SAGGSAGGGPRAVPVGELELVLGDLVVRVRFFRNPESDSVSVRVEVRPLPPISAEELARLGEEGSAGGSAGG [r6_177_TrMRF]	2.91 ± 0.15	1.67 ± 0.062	3.52 ± 0.049
SAGGSAGGGRLLIDRAFDSLEDIEEFLRELETPALVHLPDGTELFYERGDGFTEIHVIPPGELGSAGGSAGG [r6_641_TrMRF]	1 ± 0.099	0.277 ± 0.072	1.26 ± 0.053
SAGGSAGGGRRLLIEADSEELRELLEALPPEELKNVRVYGPGGVEFPAGEIEKYKYGPLLIEVPSAGGSAGG [r6_428_TrMRF]	0.669 ± 0.1	0.174 ± 0.099	0.756 ± 0.18
SAGGSAGGGSLTPLSEDETTITLRLSPSLDEVLKELGLTVTGVEEEGETVTVTVKVSPEVKEKLSAGGSAGG [r6_109_JUSTAS]	0.00369 ± 0.19	0.13 ± 0.062	-0.183 ± 0.2
SAGGSAGGGSLTVTTDPDGTQTVTLPDGRTFTFTNPYGVTRLVRARPDDGFEVWLQVDGKWYPLSAGGSAGG [r6_903_TrMRF]	1.57 ± 0.031	0.96 ± 0.022	1.88 ± 0.053
SAGGSAGGGTIEIEDPNGVKVEIEIDPDDGYTIIKAFMPDGWVITILMPPEGKIEIETFPLEPPSAGGSAGG [r6_415_TrROS]	2.43 ± 0.35	1.92 ± 0.26	2.96 ± 0.23
